From publication PMC3564530 (Molecular Biology of the Cell, 2013)

Molecular target: recombinant his6-tagged linear penta-Ub (Ub5) (UniProt P0CG48)
Assay: pull-down

recombinant his6-tagged linear penta-Ub (Ub5), sequence (P0CG48 1-380): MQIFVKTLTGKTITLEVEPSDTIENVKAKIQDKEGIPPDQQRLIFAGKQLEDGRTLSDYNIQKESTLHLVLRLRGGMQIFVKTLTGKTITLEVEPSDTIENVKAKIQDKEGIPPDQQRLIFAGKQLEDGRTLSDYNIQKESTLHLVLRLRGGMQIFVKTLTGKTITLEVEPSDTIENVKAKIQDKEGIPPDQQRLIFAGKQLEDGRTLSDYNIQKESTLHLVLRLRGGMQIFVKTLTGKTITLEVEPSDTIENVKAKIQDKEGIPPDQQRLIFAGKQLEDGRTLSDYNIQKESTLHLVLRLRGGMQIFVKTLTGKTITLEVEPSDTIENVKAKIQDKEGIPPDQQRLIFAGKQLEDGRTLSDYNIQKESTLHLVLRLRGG

binding result: binds
B1: recombinant purified GST-CIN exon 2 (domain or fragment)
chain: TGSLAAAVETASGRQALVVGKPSPYMFECITENFSIDPARTLMVGDRLETDILFGHRCGMTTVLTLTGVSRLEEAQAYLAAGQHDLVPHYYVESIADLTEGLED
